{"source": "the nanobody polyreactivity screen of Harvey et al. (2022)", "data": [{"experiment": "yeast display, Sf9 membrane polyspecificity reagent, FACS + sequencing; frameworks hold sequencing errors", "summary_of_the_method": "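A nanobody's polyreactivity label depends on the gate it was sorted from. Yeast display cells were stained with 10% biotinylated, detergent-solubilized Sf9 membrane reagent for 1 hour at 4 °C, enriched on streptavidin microbeads and sorted by FACS. The low and high (top ~1%) gates were set on anti-HA fluorescence for expression and streptavidin fluorescence for reagent binding.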", "values": [{"sequence": "QVQLVESGGGLVQAGRSLRLSCAASGLIFVNYAMGWYRPAPGHERELVAASTRSGGRTYYADSVKGRFTISRDNAKNRRYLHMNSLKPVDTAVYYCAAYVRSATLRVNYGYWGQGTQVTVSS", "polyreactivity (PSR sort gate)": "high polyreactivity"}, {"sequence": "QVQLVESGGGLVQAGGSLRLSCAASGRTLASNAMGWYRQAPGKEREFVAAITDSGGRTYYADSVKGRFTISRDNAKNTVYLQMNSLKPEDTAVYYCNAYQYYERYDTYLFRYDYWGQGTQVTVSS", "polyreactivity (PSR sort gate)": "low polyreactivity"}, {"sequence": "QVQLVESGGGLVQAGGSLRLSCAASGRTFGSYGMGWYRQAPGKERELVAAISRSVGSTYYADSVKGRFTISRDNAKNSVYLQMNSLKPEDTAVYYCAVLNHRSFRYTSYYYWGQGTLVTVSS", "polyreactivity (PSR sort gate)": "high polyreactivity"}, {"sequence": "QVQLVESGGGLVQAGGSLRLSCAASGSTFDIYAMGWYRPAPGKERELVAVISGGDGSTYYADSVKGRFTISRDNAKNTVYLQMNSLKPEDTAVYYCAADYISPGYWDGEYDCWGQGTQVTVSS", "polyreactivity (PSR sort gate)": "low polyreactivity"}, {"sequence": "QVQLVESGGGLVQAGGSLRLSCAASGSIFTIYAMGWYRQAPGKERELVAAIRESSGSTYYADSVKGRFTISRDYAKNTVYFQINSLKPEDTAVYYCAADINYSSYDYWGQGTQVTVSS", "polyreactivity (PSR sort gate)": "high polyreactivity"}, {"sequence": "QVQLVESGGGLVQAGGSLRLSCAASGRIFVYNAMGWYRQAPGQERELVAAISRGGSTNYADSVKGRFTISRDNAKNTVYLQMNSLKPEDTAVYYCAADIYQYGYDYWGQGTQVTVSS", "polyreactivity (PSR sort gate)": "low polyreactivity"}, {"sequence": "QVELVESGGGLVQAGGSLRLRCAASGLTFYYYPMGWYRQAPGKERELFAAIASVGSTYYADSVKGRFTISRDNATNTVYLQMNSLKPDDTAVYYCAAKSFWWHEDYWGQGTQVTVSS", "polyreactivity (PSR sort gate)": "low polyreactivity"}, {"sequence": "QVQLVESGGGLVQAGGSLRLSCAASGNTFGNYGMGWYRQAPGKEREFVAAITSRGTSSYYADSVKGRFTISRDNAKNTVYLQMNSLKPEDTAVYYCNARPRYKYPRYDYWGQGTQVTVSS", "polyreactivity (PSR sort gate)": "high polyreactivity"}, {"sequence": "QVQLVESGGGLVQAGGSLRLSCAASGRTFTAYAMGWYRQAPGKERELVAAISVGGGSTYYADSVKGRFTISRDNAKNTVYLQMNSLKPEDTAVYYCAADRSYYLDGYDYWGQGTQVTVSS", "polyreactivity (PSR sort gate)": "low polyreactivity"}, {"sequence": "QLQLVESGGGLVQAGGSLRLSCAASGSIFDQNAMGWYRHAPGKERELVAAISKSGGSTYYADSVKGRFTISRDNAKNTVYLQLNSLKPEDTAVYYCAARYHYPGNWYNYWGQGTQVTVSS", "polyreactivity (PSR sort gate)": "low polyreactivity"}, {"sequence": "QVQLVESGGGLVQAGGSLRLSCAASGRTFDYNTMGWYRPAPGKDRELVAAISASGGSTYYADSVKGRFTISRDNAKNTVYLQMNSLKPEDTAVYYCNTYAGVEYYHWGQGTQVTVSS", "polyreactivity (PSR sort gate)": "low polyreactivity"}, {"sequence": "QVQLVESGGGLVQAGGSLRLSCAASGSTFGLYAMGWYRQAPGKERELVAAISYNTGRTYYADSVKGRFTISRDNAKNTVYLQMNSLKPEDTAVYYCAAEYFIWSYTRYEYWGQGTQVTVSS", "polyreactivity (PSR sort gate)": "high polyreactivity"}, {"sequence": "QVQLVESGGGLVQAGGSLRLSCAASGRTFYRYAMGWYRQAPGKERELVAAITTGGGSTYYADSVKGRFTISRDNAKNTVYLQMNSLKPEETAVYYCNVYSSYTRRTLGDYWGQGTQVTVSS", "polyreactivity (PSR sort gate)": "high polyreactivity"}, {"sequence": "QVQLVESGGGLVQAGGSLRLSCAASGRILFRYGMGWYRQAPGKERELVARISWSGGNTHYADSVKGRFTISRDNAKNTVYLQMNSLKPDDTAVYYCNAYYTYWYPRYDYWGQGTQVTVSS", "polyreactivity (PSR sort gate)": "low polyreactivity"}, {"sequence": "QVQLVESGGGLVQAGGSLRLSCAASGGIFNYYAMGWYRQAPGKERELVAAMTSAGSTYADSVKGRFTISRDNATNTVSLQMNILKPEDTAVYYCNAVGVVVKFGYYLIGYAKWYDYWGQGSQVTVSS", "polyreactivity (PSR sort gate)": "low polyreactivity"}, {"sequence": "QVQLVESGGGLVQAGGSLRLSCAASGSTFVIYDMGWYRQAPGKERELVAAISYSGGSTYYADSVKGRFTISRDNAKNTVYLQMNSLKPEDTAVYYCNAGVLVLLYAYLPSELEYWGQGTQVTVSS", "polyreactivity (PSR sort gate)": "low polyreactivity"}, {"sequence": "QVQLVESGGGLVQAGGSLRLSCAASGRIFLGYAMGRYRPARGKERELVAAISTSGGSTYYADSVKGRFTISRDNAKNTVYLQMNSLKPEDTAVYYCAARNVRTYVTGVDYDYWGQGTQVTVSS", "polyreactivity (PSR sort gate)": "high polyreactivity"}, {"sequence": "QVQLVESGGGLVQAGGSLRLSCAASGFIFYYYAMGWYRQAPGKERELVAAITQGGGSTYYADSVKGRFTISRDNAKNTVYLQMNSLKPEDTAVYYCAAVKRVYAHSRAFSSDFYYWGQGTQVTVSS", "polyreactivity (PSR sort gate)": "high polyreactivity"}, {"sequence": "QVQLVESVGGLVLAGGSLRLSCAASGSIFIVNAMGWYRQAPGKERELVAAISGRGGNTNYADSVKGRFTISRDNAKNTVYLQMNSLKPEDTAVYYCAARHTRDYDYWGQGTQVTVSS", "polyreactivity (PSR sort gate)": "low polyreactivity"}, {"sequence": "QVQLVESGGGLVQAGGSLRLSCAASGSTFRHYAMGWYRQAPGKERELVAVISWGGTSTYYADSVKGRFTISRDNAKNTVYLQMNSLKPEDTAVYYCAVKYAYPYAGVSAIRYYYWGQGTQVTVSS", "polyreactivity (PSR sort gate)": "low polyreactivity"}, {"sequence": "QVQLVESGGGLVQAGGSLRLSCAASGRTFGEYVMGGYRQAPGKERELVASISRRGGSTYYADSVKGRFTLSRDNAKNTVYVLMNSQNPEDTAVYYCAKYRTQWSKNLYPYGFDYWGHGTQVTVSS", "polyreactivity (PSR sort gate)": "low polyreactivity"}, {"sequence": "QVQLVESGGGLVQAGGSLRLSCAASGSTFPRYAMGWYRPAPGKERELVAAISSSGRTYYADSVKGRFTISRDNAKNTVYLQMNSLNPEDTAVYYCNAPVARGEASYYWGQGTQVTVSS", "polyreactivity (PSR sort gate)": "high polyreactivity"}, {"sequence": "QVQLVESAGGLVQAGGSLRLSCAASGSTFWIYTMGWYRQAPGKERELVAAITWSGGRTYYADSVKGRFTISRDNAKNTVYLQMNSLKPEDTAVYYCNADVYSYRPSTIQRYVLFDYWGQGTQVTVSS", "polyreactivity (PSR sort gate)": "low polyreactivity"}, {"sequence": "QVQLVESGGALVQAGGSLRLSCDASGSTLWDYAMGWYRQAPRKERELVAASTQSTGDTHYADSVKGRFTLSRDNAKNTVYFQMNSLKPEDTAVYYCAADSYLSVYDPYGYWGQGTQVTVSS", "polyreactivity (PSR sort gate)": "low polyreactivity"}, {"sequence": "QVQLVESGGGLVQAGGSLRLSCAASGSIFGYYTMGWYRQAPGKERELVATINWSGGNTYYADSVKGRFTISRDNAKNTVYLQMNSLKPEDTAVYYCATRPRRGTSENGYWGQGTQVTVSS", "polyreactivity (PSR sort gate)": "high polyreactivity"}, {"sequence": "QVQLVESGGGLVQAGGSLRLSCAASGIIFAYNAMGWYRQAPGKERELVATITDSGGSTSYADSVKGRFTISRDNAKNTVYLQMNSLKPEDTAVYYCAVLPVYWYWRNYVYLSGYDYWGQVTQVTVSS", "polyreactivity (PSR sort gate)": "low polyreactivity"}, {"sequence": "QVQLVESGGGLVQAGGSLRLSCAASGIIFYKYSMGWYRQAPGKERELVAAITSGGGRTYYADSVKGRFTISRDNAKITVDLQMNSLKPEDTAVYYCAATRPATYAAYDYWGQGTQVTVSS", "polyreactivity (PSR sort gate)": "high polyreactivity"}, {"sequence": "QVQLVESGGGLVQAGGSLRLSCAASGSIFRVYAMGWYRQAPGKVRELVAVISIAGRTNYADSVKGRFTISRDNAKNTVYLQMNSLKPEDTAVYYCNAEWDLNHLYDSWGQGTQETVSS", "polyreactivity (PSR sort gate)": "low polyreactivity"}, {"sequence": "QVQLEESGGGLVQAGGSLRLSCAASGLTLGRYAMGWYRQAPGKERELVAVITGGGSTNYADSVKGRFTISRDNAKNTVYLQMNSLKPEDTAVYSCAVRGGIFQTLSTWYRYYYWGQGTQVTVSS", "polyreactivity (PSR sort gate)": "high polyreactivity"}, {"sequence": "QVQLVESCGGLVQAGGSLRLSCAASGRTFYKAMGWYRQAPGKERELVAASTTGGGTKYADSVKGRFTISRDNAQNTVYLQMNSLKPEDTAVYYCNTDEWYHFYHGAHKYDYWGQGTQVTVSS", "polyreactivity (PSR sort gate)": "low polyreactivity"}, {"sequence": "QVQLVESGGGLVQAGGSLRLSCAASGRIFSWNAMGWYRQAPGKERELVARITWNGGRTYYADSVKGRFTISRDNAKNTVYLQMNSLKPEDTAVYYCNAERFDLTYNYWGQGTQVTVSS", "polyreactivity (PSR sort gate)": "high polyreactivity"}, {"sequence": "QVQLVESGGGLVQAGGSLRLSCAASGSIFSTNGMGWYRQAPGKERELVAAISTGGRTYYADSVKGRFTISRDNAKNTVYLQMNSLKPEETAVYYCAKDHWTTTYDEGDYWGQGTEVTVSS", "polyreactivity (PSR sort gate)": "low polyreactivity"}, {"sequence": "QVQLVESGGGLVQAGGSLRLSCAASGRTFRYYAMGWYRQPPGKERELVATITGSGGSTYYADSVKGRFTISRDNAKNTVYVQMNSLKPEDTAVYDCNARKVRYPYRWYDYWGQGTQVTVSS", "polyreactivity (PSR sort gate)": "high polyreactivity"}, {"sequence": "QVQLVESRGAIVQAGASLRLSSAASGFTFWDYAMGCYRQAPGKERELVAAISSRGTRTYYADSVKGRFTISRDNAKNTVYLQMNSLKPEDTAVYYCATASPDPDYIHNYWGQGTQVTVSS", "polyreactivity (PSR sort gate)": "high polyreactivity"}, {"sequence": "QVQLVESGGGLVQAGGSLRLTCAASGFTFFVYAMGWYRQAPGKERELVASITFRSGTTYYADSVKGRFTISRDNAKNTVYLQMNSLKPEDTAVYYCAADSRRSSRGYGYYYWGQGTQVTVSS", "polyreactivity (PSR sort gate)": "high polyreactivity"}, {"sequence": "QVQLVESGGGLFQAGGSLRLSCAASGRTIQTYTMGRYRQAPGKERELYAVITTRGGRTYYADSVKGRFTISRDNAKNTFYLQINRLKPEDTGVYYCIKGIPTRSVRSYDYWGQGTQVTVSS", "polyreactivity (PSR sort gate)": "high polyreactivity"}, {"sequence": "QVQLVESGGGLVQAGGSLRLSCAASGRTFTRYAMGWYRQAPGKERELVAAISWSGGSTYYADSVKGRFTISRDNAKNTVYLQMNSLKPEDTAVYYCNAYYYYPEFNYWGQGTQVTVSS", "polyreactivity (PSR sort gate)": "high polyreactivity"}, {"sequence": "QVQLEESGGGLVQAGGSLRLSCAASGRTFIYYAMGWYRQATGKEREFVAAITKSGGTTYYADSVKGRFTISRHNAKNTVYLQMNSLKPEDTAVYYCAKTTRRGFALYDYWGQGTQVTVSS", "polyreactivity (PSR sort gate)": "high polyreactivity"}, {"sequence": "QVQLHESGGGLVQSGGSLRLSCAASGTISYAGPMGWYPQAPGKEREFVAGIGVGSNTNYADSVKGRYTIIRDNAKNTVYLQMNSLKPVDTAVYYCAVGGYAPLGRPYCGQGTQVTVSS", "polyreactivity (PSR sort gate)": "low polyreactivity"}, {"sequence": "QVQIVESGGGLVKAGGSLRLSCAASGSTFERYAMGWYRQAPGKERELVAAINWSGGGTYYADSVKGRFTISRDNAKNTVYLQMNSLKPEDTAVYYCAADSGTVVFSLWWYEYYYWGQGTQVTVSS", "polyreactivity (PSR sort gate)": "low polyreactivity"}, {"sequence": "QVQLVESGGGLVQAGGSLRLSCAASGSTFYKYAMGWYRQAPGKERELVASITWSGTSTYYADSVKGRFTISRDNAKNTVYLQMNSLKPEDTAVYYCNAGLEYYYWGYTWEFDYWGQGTQVTVSS", "polyreactivity (PSR sort gate)": "low polyreactivity"}, {"sequence": "QVQLVESGGGLVQAGGSLRLSCDASGFISFGNAMGWNRQAPRKERELVAGISRSGGSTYYADSVKGRFTISRDNAKNTVYLQMISLKPEDTAVYYCATRVAIYPYRFDYWGQGTQVTVSS", "polyreactivity (PSR sort gate)": "high polyreactivity"}, {"sequence": "QVQLVESGGGLVQAGGSLRLSCAASGSIFSAYAIGWYRQAPGKERELDAAITKSSVTYYADSVKGRFTISRDNAKNSVYLHMNSLKPEDTAVYYCAAASGGTVVGEVDYWGQGTQVTVSS", "polyreactivity (PSR sort gate)": "low polyreactivity"}]}]}
